B1: des(1)-Ac-[D-Tyr2,D-Trp3,Thr5,AzaGly7,D-Arg9,Trp10]MS10 (peptide)
peptide: Ac-[dY][dW]NTF[azaGly]L[dR]W-NH2
SMILES: CC(=O)N[C@H](Cc1ccc(O)cc1)C(=O)N[C@H](Cc1c[nH]c2ccccc12)C(=O)N[C@@H](CC(N)=O)C(=O)N[C@H](C(=O)N[C@@H](Cc1ccccc1)C(=O)NNC(=O)N[C@@H](CC(C)C)C(=O)N[C@H](CCCNC(=N)N)C(=O)N[C@@H](Cc1c[nH]c2ccccc12)C(N)=O)[C@@H](C)O
B2: des(1)-Ac-[D-Tyr2,NMeAla3,Thr5,AzaGly7,Arg(Me)9,Trp10]MS10 (peptide)
peptide: Ac-[dY][NMeA]NTF[azaGly]L[Arg(Me)]W-NH2
SMILES: CNC(=N)NCCC[C@H](NC(=O)[C@H](CC(C)C)NC(=O)NNC(=O)[C@H](Cc1ccccc1)NC(=O)[C@@H](NC(=O)[C@H](CC(N)=O)NC(=O)[C@H](C)N(C)C(=O)[C@@H](Cc1ccc(O)cc1)NC(C)=O)[C@@H](C)O)C(=O)N[C@@H](Cc1c[nH]c2ccccc12)C(N)=O
B3: des(1)-Ac-[D-Tyr2,Thz3,Thr5,AzaGly7,Arg(Me)9,Trp10]MS10 (peptide)
peptide: Ac-[dY][Thz]NTF[azaGly]L[Arg(Me)]W-NH2
SMILES: CNC(=N)NCCC[C@H](NC(=O)[C@H](CC(C)C)NC(=O)NNC(=O)[C@H](Cc1ccccc1)NC(=O)[C@@H](NC(=O)[C@H](CC(N)=O)NC(=O)[C@@H]1CSCN1C(=O)[C@@H](Cc1ccc(O)cc1)NC(C)=O)[C@@H](C)O)C(=O)N[C@@H](Cc1c[nH]c2ccccc12)C(N)=O
B4: des(1)-Ac-[D-Tyr2,Aze(2)3,Thr5,AzaGly7,Arg(Me)9,Trp10]MS10 (peptide)
peptide: Ac-[dY][Aze]NTF[azaGly]L[Arg(Me)]W-NH2
SMILES: CNC(=N)NCCC[C@H](NC(=O)[C@H](CC(C)C)NC(=O)NNC(=O)[C@H](Cc1ccccc1)NC(=O)[C@@H](NC(=O)[C@H](CC(N)=O)NC(=O)[C@@H]1CCN1C(=O)[C@@H](Cc1ccc(O)cc1)NC(C)=O)[C@@H](C)O)C(=O)N[C@@H](Cc1c[nH]c2ccccc12)C(N)=O
B5: des(1)-Ac-[D-Tyr2,Pic(3)3,Thr5,AzaGly7,Arg(Me)9,Trp10]MS10 (peptide)
peptide: Ac-[dY][Pic(3)]NTF[azaGly]L[Arg(Me)]W-NH2
B6: des(1)-Ac-[D-Tyr2,Gly3,Thr5,AzaGly7,Arg(Me)9,Trp10]MS10 (peptide)
peptide: Ac-[dY]GNTF[azaGly]L[Arg(Me)]W-NH2
SMILES: CNC(=N)NCCC[C@H](NC(=O)[C@H](CC(C)C)NC(=O)NNC(=O)[C@H](Cc1ccccc1)NC(=O)[C@@H](NC(=O)[C@H](CC(N)=O)NC(=O)CNC(=O)[C@@H](Cc1ccc(O)cc1)NC(C)=O)[C@@H](C)O)C(=O)N[C@@H](Cc1c[nH]c2ccccc12)C(N)=O
B7: des(1)-Ac-[D-Tyr2,Pic(2)3,Thr5,AzaGly7,Arg(Me)9,Trp10]MS10 (peptide)
peptide: Ac-[dY][Pip]NTF[azaGly]L[Arg(Me)]W-NH2
SMILES: CNC(=N)NCCC[C@H](NC(=O)[C@H](CC(C)C)NC(=O)NNC(=O)[C@H](Cc1ccccc1)NC(=O)[C@@H](NC(=O)[C@H](CC(N)=O)NC(=O)[C@@H]1CCCCN1C(=O)[C@@H](Cc1ccc(O)cc1)NC(C)=O)[C@@H](C)O)C(=O)N[C@@H](Cc1c[nH]c2ccccc12)C(N)=O
B8: des(1)-Ac-[D-Tyr2,Hyp3,Thr5,AzaGly7,Arg(Me)9,Trp10]MS10 (peptide)
peptide: Ac-[dY][Hyp]NTF[azaGly]L[Arg(Me)]W-NH2

Square brackets hold non-standard residues; d marks the D form. Primed or numbered codes have the meaning given here. Pic(3) = 3-piperidinecarboxylic acid; Arg(Me) = CNC(=N)NCCC[C@H](N)C(=O)O; Hyp = O=C(O)[C@@H]1C[C@@H](O)CN1; Pip = O=C(O)[C@@H]1CCCCN1; NMeA = CN[C@@H](C)C(=O)O; Thz = O=C(O)[C@@H]1CSCN1; Aze = O=C(O)[C@@H]1CCN1; azaGly = NNC(=O)O

Here are results for eight molecules from patent publication US20090105152A1.

The target in the experiment is human OT7T175 (metastin receptor) (human) (UniProt Q969F8). As to the kind of experiment: cell-based or functional assay.
Sequence of human OT7T175 (metastin receptor) (human) (Q969F8 whole entry L364H): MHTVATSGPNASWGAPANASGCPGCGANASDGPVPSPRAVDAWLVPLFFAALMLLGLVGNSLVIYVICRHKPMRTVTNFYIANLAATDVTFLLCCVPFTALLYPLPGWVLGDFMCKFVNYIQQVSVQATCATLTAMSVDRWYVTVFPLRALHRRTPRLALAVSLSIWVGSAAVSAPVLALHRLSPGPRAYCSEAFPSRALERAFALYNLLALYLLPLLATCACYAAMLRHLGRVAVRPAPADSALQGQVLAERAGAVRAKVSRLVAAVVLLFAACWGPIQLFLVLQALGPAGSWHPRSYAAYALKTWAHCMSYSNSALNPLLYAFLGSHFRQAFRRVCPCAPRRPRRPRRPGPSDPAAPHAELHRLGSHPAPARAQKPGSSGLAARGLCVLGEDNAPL
Take B1: the intracellular Ca ion level-increasing activity [specific activity to Metastin (1-54)] (relative to Metastin (1-54)) turned out to be 12.8.
Under B2 stands 2.7.
Consider B3, for which the intracellular Ca ion level-increasing activity [specific activity to Metastin (1-54)] (relative to Metastin (1-54)) stood at 1.4.
The figure for B4 is 0.8; for B5 it is 2.2; for B6 it is 3.1.
On to B7, for which the intracellular Ca ion level-increasing activity [specific activity to Metastin (1-54)] (relative to Metastin (1-54)) turned out to be 1.1.
The figure for B8 is 2.
